How the values were obtained:
Test in all cases: purified protein
Format in all cases: biochemical, Cellulomonas fimi
purified protein [1] = substrate: O=[N+]([O-])c1ccccc1O[C@@H]1O[C@H](CO)[C@@H](O[C@@H]2O[C@H](CO)[C@@H](O)[C@H](O)[C@H]2O)[C@H](O)[C@H]1O; details: pH 6.0, 60 °C, partially purified enzyme, printed value differs between text and Table 3
purified protein [2] = substrate: O=[N+]([O-])c1ccccc1O[C@@H]1OC[C@@H](O)[C@H](O)[C@H]1O; details: pH 6.0, 45 °C, partially purified enzyme, points at 20 mM and above excluded (substrate precipitation)
purified protein [3] = substrate: O=[N+]([O-])c1ccc(O[C@@H]2O[C@@H](CO)[C@H](O)[C@H]2O)cc1; details: pH 6.5, 45 °C, partially purified enzyme

B1: XynF (Cellulomonas fimi ATCC 484) (protein)
chain: AGSTLQAAAAESGRYFGTAIAASRLSDGTYTGIANREFNMITAENEMKMDATEPNRGQFSYSNGDRIVNWARQNGKQVRGHALAWHSQQPGWMQNLSGTDLRNAMLNHVTQVATYYRGKIYAWDVVNEAYADGSSGARRDSNLQRTGNDWIEAAFRAARAADPNAKLCYNDYNTDNWSHAKTQGVYNMVKDFKARGVPIDCVGFQAHFNSGNPVPSNYHTTLQNFADLGVDVQITELDIEGSGSSQAQQYQGVVQACLAVSRCTGITVWGVRDTDSWRASGTPLLFDGSGNKKAAYTSVLNALNAGGTTTPTPNPTNPTPTPTPTNPGGGSPSCTATYSEGQKWGDRFNGTVTIRATTNISSWQSTVTVRSPQKIIATWNGSPTWDSSGNVMTMRPSGSGALAAGQSTSFGFTVQHNGNWTWPSVTCAAS
notes: ORF with TAT signal peptide and CBMII as BioBrick, E. coli JM109, untagged; partially purified (DEAE-, CM-Sepharose)
Question: How did the Km (purified protein [1]) turn out when B1 was run?
Answer: 58 mM

B2: BxyF (Cellulomonas fimi ATCC 484) (protein)
chain: MTRRLVPELEVRRHLVEDYADFTQIPEAVVARWKAPFGPPEDWDLTVVDHTVPGPHGPVPVRVYTPVGTPPDGGRACLVWMHGGAFSWGDLDMAEAHEVARGVAGRADVVVVSVDYRLCPVMPELGGTVGDRVDERGEPVRFPVPQDDCAAVLDAVRADPARFGVDAARVAIGGASAGAFLAAAVTLRAVEDGRAPWQTLLVYPMLHPRVPALGTELAEAVEAAPRALQLPAWMVEATNRTVLGREPEPSDDEAFPGLAARLEGFPPTYVENGELDAFRASGERFSTRLRAAGVDVVEVTRSGVPHGHLDWVGFGPARDTLDALAQRLRAPSAADRQALDELRVDGAPASDAPLHHVWNRCVGAGRANEALRADWQAHLREAVDVLGVRSVRFHGLFHDDMFVYRSTYGGGFAPPEVLPEPLITFSYVDMVFDALLDAGARPFVELGFMPRELATQTETLFWWKAHCSPPTDMAEWVRLVSETVRHWIERYGLDEVRQWRFEVWNEPNLVPHFWTGTRTEYFALYEATARALKAIDLQLRVGGPSTSVFVPDARYAGETYDHAAEFATGRAPDPDALDWQPVWVRELVDYCAERDLPLDFLSTHLYPTDYAADGTGSGVTAIHRHVDATEQDLRLLQELIAASPYPDAELHITEWSSSPSSRDRTHDTLFAATYITRAFLKGAALADSISYWTFTDIFEEGGAGLGPFHGGFGFVNEQGIHKPTFHAVAMLNRLGDRVVHQDEHGIITRSSGDGHVSAVFLNYPAEMGTRGVEQHDTYAAARAYREIGTARRVRRTVAGLEPGTVFQVEVLDWEHGNAAEAWHQMGEPLNLTRAQTTELKTVADDLRRWTITVPDSGVLEIDLDLPAWAVASVAPVTPTPSPTTNDAPSPTSSRQG
notes: full ORF as BioBrick, E. coli JM109, untagged; partially purified (DEAE-Sepharose, phenyl-agarose)
Question: Which Km (purified protein [2]) does the source give for B2 here?
Answer: 1.7 mM

B3: AfsB (Cellulomonas fimi ATCC 484) (protein)
chain: MFPVRLTLDPAFRVGPVRRRTFGSFVEHLGRCVYTGIHDPGHPTADADGFRKDVLELTRELGVSTVRYPGGNFVSGYRWEDGVGPVEQRPTRLDLAWHSLEPNTVGVDEFMRWAALAEVEPMMAVNLGTRGVQEALDLLDYCNGTAPTYWADQRRANGATDPYAIKMWCLGNEMDGPWQIGSKTAHEYGRLAAETGRAMKMVDPTLELVACGSSGVVMPTFGEWERIVLSEAYEQVDYVSAHAYYWEEDGDLGSFLASATDMDHFVESVTATADAVRAHKKVSKRIHISFDEWNVWYQKRAESRPPTGDDWPVAPVLLEDRYNVADAVVVGNLLISLLRHTDRVHAASLAQLVNVIAPIMTEPGGRSWKQTIFHPFAQASRYAAGDVLQVAIDAPTYETARYGDAALVDAVATRDPETGATTLFAVNRSLTEPALLEVDTRALPGLRVLDASTLSNPDHTWAATADDDTSVAPRANTTAEIRDGRLTVQVPPVSWNVVRLGA
notes: as for B2
Question: For B3, which Km (purified protein [3]) is on record?
Answer: 6.8 mM
